Assay [1] deals with S. mutans CLC^F homologue encoded by ORF 1290 (Streptococcus mutans UA159). Kind of assay: cross-linking; 0.2 mg/mL purified protein in detergent (DM) with 0.125% glutaraldehyde (~500-fold molar excess) at room temperature for the indicated times, quenched with 0.15 M Tris-HCl pH 7.5, SDS-PAGE; monomer and dimer bands.
Assay [2] addresses S. mutans CLC^F F-/H+ antiporter encoded by ORF 1289 (Streptococcus mutans UA159). The assay is described as above.

In general, stoichiometry N refers to the number of molecules, sites or subunits per partner or assembly. “S. mutans CLC^F homologue encoded by ORF 1290 (natural protein)” displayed a stoichiometry N in assay [1] of 2.

Take “S. mutans CLC^F F-/H+ antiporter encoded by ORF 1289 (natural protein)”: the stoichiometry N in assay [2] came out at 2.
